Results as given in US20130224829A1, “NOVEL LIPOXYGENASE DERIVED FROM LEMNA PAUCICOSTATA” (priority 2010, published 2013).

Assay: Lipoxygenase activity of enzyme solutions on α-linolenic acid, reverse-phase HPLC of linolenic acid hydroperoxide
Format: biochemical
Details: for activity of position 9-product specific lypoxygenase compared with r9-LOX1 (amount of lynolenic acid-9-hydroperoxide): HPLC comparison, FIG. 6; for position 9 product specific lypoxygenase activity (peak of linolenic acid-9-hydroxyperoxide, 21.1 min): α-linolenic acid substrate, pH7.0, 30 minutes reaction, E. coli-expressed enzyme solution
Experimental: The activity of lypoxygenase in the enzyme solutions of SHLpLOX, 441LpLOX1, 441LpLOX2 and r9-LpLOX1 which was used as a control, was determined. 25 μl of 5 mM α-lynolenic acid solution (including 0.05% Tween80), 10 μl of 0.2M phosphate Na Buffer (pH7.0), 5 μl of distilled water were added to 1.5 ml of tube, and then 10 μl of the enzyme solution was added to the tube, and allowed to react for 30 minutes. After the reaction was over, reactant was subjected to HPLC (reverse phase; Column: Capsule pack C-18 UG120 (4.6×250 mm, Shiseido), Column temperature: 40° C., Mobile phase: 50% acetnitril (0.02%TFA), Flow rate 1 ml/min, Detection: 210 nm) so as to detect the site specificity of produced lynolenic acid hydroperoxide and the production amount.
The amount of lynolenic acid-9-hydroperoxide form was compared based on the results of HPLC.

Molecule | activity of position 9-product specific lypoxygenase compared with r9-LOX1 (amount of lynolenic acid-9-hydroperoxide) | position 9 product specific lypoxygenase activity (peak of linolenic acid-9-hydroxyperoxide, 21.1 min)
SHLpLOX: Position 9 product specific lipoxygenase obtained from Lemna paucicostata SH strain (SEQ ID NO: 2), expressed in Escherichia coli (protein, listed as Lemna paucicostata) MAGFLQKVTDNLLHKAAKISGTVVLVKSNVVGFNDFADSFLDGLHELLGSGITFQLVSATVGDPKNGNKGKLGKPALLEKWITTGTFLAAGDSGFKVNFEWDEQLGVPGAVIVKNNHHGEFFLKSLTLDGAPGPRSRIHFDCNSWVYPYSTYNYDRVFFANDTYLPGEMPEPLKAYRAAELVNLRGDGVTRELKEGDRIYAYDLYNDLGDPDSGKELARPILGGSEEYPYPRRARTGRKLTKTDPKSEQRLPLVFSLNVYVPRDERFGHLKMSDFLAYSLKALAQGLVPALDAATDITPFEFDTFQDVLNLYEGGINLPTTPALENFKKQIPFPLVKELFRSDGENLFRLPTPSVIKADKFAWRTDEEFGREMLAGVNPVCIRLLKKFPPVSSLDPSIYRNQNSTMIADQLEKNMNGLSVEEALKQKKLFILDHHDSLMPYLERINTFNKIYASRTVLLLQDDGTLKPLAIELSLPVKGEKGAVSKVYTPAEHGVEGAVWQLAKAYVAVNDSGVHQLISHWLNTHATIEPFSIALNRQLSVVHPIYKLLHPHFRDTMNINAFARQILINAGGILEMTVFPGKYAMEMSSVVYKGWKLTDQALPVDLLNRGVAEKDPSSGELRLLIEDYPYAVDGLDVWNAIEEWVKEYCAIYYPSDKTLQDDTEVQAWWKEVREVGHGDKKDETWWPAMETVAELTQTCSTIIWVASALHAAVNFAQYPYAGYLPNRPTISRRFMPEPGTPEYEELETDPDRAFLKTITSQLQTLIGVSLIEILSRHSSDEIYLGQRVSAEWTSDAKALAAFKAFGEKLITIENKIIEMNVDSSLKNRNGPVKVPYTFLYPNTTDYTRVGGLTGRGIPNSISI | far higher activity | have position 9 product specific lypoxygenase activity
441LpLOX2: Position 9 product specific lipoxygenase 2 obtained from Lemna paucicostata 441 strain (SEQ ID NO: 6) (protein, listed as Lemna paucicostata) MADFLQKVTNNLLHKAAKISGTVVLVKSNVIGFNDFGDSFLDGLHELLGSGITFQLVSATVGDPNNGNKGKLGKPALLEKWITTGTFLVAGDSGFKVNFEWDEQLGIPGAVIVKNNHHGEFFLKSFTLDGVPGPRSRIHFDCNSWVYPYSTYNYDRVFFANDTYLPGETPEPLKAYRAAELVNLRGDGVTRELKEGDRIYAYDYYNDLGDPDSGKELARPILGGSKEYPYPRRARTGRKLTKTDPKSEQRLPLVFSLNVYVPRDERFGHLKMSDFLAYSLKALAQGLVPALDAAADITPFEFDTFQDVLNLYEGGINLPTTPASENFKKQIPFPLVKELFRSDGENVFRLPTPSVIKADKFAWRTDEEFGREMLAGVNPVCIRLLTKFPPVSSLDPSIYGNQNSTMIADQLEKNMNGLSVEEALKQKKLFILDHHDSLMPYLERINTFNKIYASRTVLLLRDDGTLKPLAIELSLPIKGEKGAVSKVYTPAEHGVEGAVWQLAKAYVAVNDSGVHQLISHWLNTHATIEPFSIALNRQLSVVHPIYKLLHPHFRDTMNINAFARQILINAGGILEMTVFPGKYAMEMSSVVYKGWKLTDQALPVDLLNRGVAEKDPSSGELRLLIEDYPYAVDGLDVWNAIEEWVKEYCAIYYPSDKTLLDDTELQAWWKEVREVGHGDKKDETWWPAMETVAELTQTCCTIIWVASALHAAVNFAQYPYAGYLPNRPTISRRFMPEPGTPEYEELETDPDRAFLKTITSQLQTLIGVSLIEILSRHSSDEIYLGQRVSAEWTSDAKALAAFKAFGEKLITIENKIIQMNVDSSLKNRNGPVKVPYTFLYPNTTDYTRVGGLTGRGIPNSISI | – | have position 9 product specific lypoxygenase activity
441LpLOX1: Position 9 product specific lipoxygenase 1 obtained from Lemna paucicostata 441 strain (SEQ ID NO: 4) (protein, listed as Lemna paucicostata) MDAFIHKVTDVFTHKEENKVAKISGTVVIVKSNVVGFNDFVDSFLDGLHELVGSGITFQLISATVGDPKNGNKGKLGKPAQLERWITTGTFLAAGDSGFKLTFEWDEQLGFPGAVIVKNNHHGEFFLKSFTLDGVPGKKTRIHFDCNSWVYPYSTYNYDRVFFANDTFLPGNMPEPLKAYRAAELANLRGDGVAPRELKEGDRIYAYDVYNDLGDPDSGEELVRPILGGSKEYPYPRRARTGRKMTKTDPKSETRLPLLFSLNVYVPRDERFGHLKMSDFLGYSLKALAQGLVPVLNEAADLTPFEFDTFQDVLNLYEGGIDLPDSPALENVRKQIPFALIKELFRSDGENLFRLPTPAVIKADKFAWRTDEEFGREMLAGVNPVCIRLLTKFPPVSSLDPNTYGDHNSTMTADQLEKNMNGLSVEEALNKKKLFILDHHDSLMPYLERINTFNKIYASRTVLLLQDDGTLKPLAIELSLPIKGQKGAVSKVYTPAEHGVEAAVWQLAKAFAAVNDSGVHQLISHWLNTHATIEPFAIALNRQLSVVHPIYKLLHPHFRDTMNINAFARQILINAGGILEMTVFPGKYALEMSSVVYKGWKLIDHALPVDLLNRGVAENDPSAPGKLRLLIEDYPYAVDGLAVWSAIEIWVKEYCAIYYPSDKILQDDTELQAWWKEVREVGHGDKKDETWWPTMKTVAELTQTCCTIIWVASALHAAVNFGQYPYAGYLPNRPTVSRRFMPEPGTPEYEELKTDPDRAFLKTITSQLQTTIGVSLIEILSRHSSDEVYLGQRISAEWTTDEKALAAFKAFGERLITIENQIIEMNHEPKLKNRNGPVKLPYTLLYPNTSDYTRVGGLTGRGIPNSVSI | far higher activity | have position 9 product specific lypoxygenase activity
